Assay results published in article PMC1373645, “Lactate production yield from engineered yeasts is dependent from the host background, the lactate dehydrogenase source and the lactate export” (Microbial Cell Factories, 2006).

Tested on: T1, CC(=O)C(=O)O
T1 construct: full length, TTG start changed to ATG, untagged, expressed in S. cerevisiae GRF18U; crude cell extract; homotetramer
Assay: cells, lysate or membranes
Type: biochemical, Lactiplantibacillus plantarum
Details: NADH, acetate buffer pH 5.6, 25 °C, no fructose 1,6-diphosphate, Table 2 prints 1,50

Substance: L. plantarum LDH (LpLDH, plLDH) (Lactiplantibacillus plantarum WCFS1; C302S/H54D)
- Km: 1504 µM
